The source of these data is patent publication US20180111972A1 (Stanford University, published 2018).

The target in experiment [1] is T1, human VEGFR on human umbilical vein endothelial cells (HUVECs) (human, UniProt P35968 20-1356).
T1 construct: The phosphorylation blots on these cells detect VEGFR2
Nature of the experiment: flow cytometry on HUVECs, soluble ligand titrated. In general terms: Flow cytometry measures light scatter and fluorescence of single cells or particles in a stream.

Experiment [2] has as its target T1, human VEGFR on human umbilical vein …. Nature of the experiment: flow cytometry on HUVECs, soluble ligand titrated 3 h at 4 C, anti-FLAG-PE.
Method: Cells were incubated with various concentrations of hybrid PDGF/VEGF for 3 hours at 4° C. Binding was detected using an R-PE-conjugated anti-FLAG antibody, then analyzed by flow cytometry.
Experiment [3] shares this target. Nature of the experiment: cell-based or functional assay.

T1 sequence (P35968 20-1356 limits assumed): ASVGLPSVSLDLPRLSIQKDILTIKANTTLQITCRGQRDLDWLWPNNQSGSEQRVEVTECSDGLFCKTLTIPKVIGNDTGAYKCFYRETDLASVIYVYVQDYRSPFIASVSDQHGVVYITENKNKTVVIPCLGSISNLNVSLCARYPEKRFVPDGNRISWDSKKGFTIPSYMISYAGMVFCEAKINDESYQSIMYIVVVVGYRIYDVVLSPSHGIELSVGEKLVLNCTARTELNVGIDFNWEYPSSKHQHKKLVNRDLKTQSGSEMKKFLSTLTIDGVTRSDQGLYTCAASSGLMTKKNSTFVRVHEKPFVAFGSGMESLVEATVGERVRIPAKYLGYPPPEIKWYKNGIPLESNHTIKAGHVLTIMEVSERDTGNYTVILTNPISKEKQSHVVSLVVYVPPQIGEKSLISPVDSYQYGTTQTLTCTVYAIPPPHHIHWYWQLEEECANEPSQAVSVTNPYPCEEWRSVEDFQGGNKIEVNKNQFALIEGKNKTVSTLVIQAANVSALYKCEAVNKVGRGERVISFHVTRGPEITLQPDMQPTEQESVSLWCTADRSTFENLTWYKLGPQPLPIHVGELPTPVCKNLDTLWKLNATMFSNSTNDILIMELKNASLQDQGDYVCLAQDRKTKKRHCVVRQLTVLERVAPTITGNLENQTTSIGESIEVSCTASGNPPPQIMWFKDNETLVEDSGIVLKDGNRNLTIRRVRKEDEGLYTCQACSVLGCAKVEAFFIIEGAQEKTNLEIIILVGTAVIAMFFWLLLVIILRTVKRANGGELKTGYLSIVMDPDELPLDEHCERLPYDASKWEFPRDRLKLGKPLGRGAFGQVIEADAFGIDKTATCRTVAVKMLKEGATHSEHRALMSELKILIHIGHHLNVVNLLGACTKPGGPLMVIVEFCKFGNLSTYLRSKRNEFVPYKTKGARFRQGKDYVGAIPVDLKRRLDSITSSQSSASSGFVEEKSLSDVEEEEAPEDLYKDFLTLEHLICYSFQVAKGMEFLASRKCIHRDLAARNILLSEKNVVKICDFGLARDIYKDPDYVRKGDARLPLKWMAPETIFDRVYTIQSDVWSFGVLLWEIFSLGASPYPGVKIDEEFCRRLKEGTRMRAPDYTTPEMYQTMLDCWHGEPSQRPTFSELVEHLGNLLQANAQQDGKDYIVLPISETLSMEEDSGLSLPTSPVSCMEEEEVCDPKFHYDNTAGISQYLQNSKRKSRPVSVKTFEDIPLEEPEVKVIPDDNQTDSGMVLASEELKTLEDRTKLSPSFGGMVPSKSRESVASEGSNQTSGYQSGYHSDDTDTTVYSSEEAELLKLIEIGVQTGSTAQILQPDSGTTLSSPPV

B1: PVAM-S (PV R32A), soluble, FLAG and hexahistidine tags (designed binder)
chain: DYKDDDDKIAEPAMIAECHPIETLVDILQEYPDEIGYIFKPSCVPLMRCGGCCNNRNVQCRPTEESNITMQIMRIKPHRGQHIGEMSFLQHNKCRCETVAAGSTSGSGKSSEGKGEVVKFMDVYQRSYCKTRTEVFEISRRLIDATNANFLVWPPCVEVQRCSGCCNHEGLECVPTQVQLRPVQVRKIEFVRKKPIFKKATVTLEDHLACECRPKKDHHHHHH
notes: Secreted from S. cerevisiae YVH10 and treated with Endo Hf
Regarding B1, the “fold improvement over the bivalent scVEGFwt” value in experiment [1] turned out to be 7.5 fold. The Kd in experiment [2] is 0.2 nM.

B2: PV6 PDGF/VEGF chimera, soluble, N-terminal FLAG and C-terminal hexahistidine tags (designed binder)
chain: DYKDDDDKIAEPAMIAECHPIETLVDIFQEYPDEIEYIFKPSCVPLMRCGGCCNNRNVQCRPTEESNITMQIMRIKPHQGQHIGEMSFLQHNKCKCETVAAGSTSGSGKSSEGKGEVVKFMDVYQRSYCKTRTEVFEISRRLIDRTNANFLVWPPCVEVQRCSGCCNDEGLECVPTQVQLRPVQVRKIEIVRKKPIFKKATVTLEDHLACKCRPKKDHHHHHH
notes: Secreted from S. cerevisiae YVH10 and treated with Endo Hf; also called soluble PV6
For the molecule B2, the “IC50 of inhibition of HUVEC proliferation induced by 0.5 nM VEGF165, alamarBlue” value in experiment [3] came to 110 nM.

As usually defined, the Kd is a measure of binding affinity in units of concentration.
